Key:
equine IL-31 = test: Biacore binding, single test concentration of antibody, equine IL-31 surface
Experimental: For the indirect ELISA, binding (ELISA OD) to wildtype feline IL-31 and a feline IL-31 15H05 mutant which had mutations in the monoclonal antibody 15H05 epitope region was assessed. To confirm binding, biacore analysis was performed using canine, feline, equine, human, the feline 15H05 mutant, and feline 11E12 mutant IL-31 proteins as surfaces and a single test concentration of antibody. The feline IL-31 11E12 mutant had mutations in the monoclonal antibody 11E12 epitope region.
For the indirect ELISA method, antibody binding to wildtype and feline IL-31 15H05 mutant proteins was assessed. […] In comparison, the 11E12 antibody bound to the wild-type feline IL-31 and its binding was not impacted by the mutations in the 15H05 epitope region as evidenced by the data in FIG. 4. To confirm binding, biacore analysis was performed using canine, feline, equine, human, feline 15H05 mutant, and feline 11E12 mutant IL-31 proteins as surfaces and a single test concentration of antibody. Similar to ELISA observations, all antibodies tested bound to wildtype feline IL-31. In agreement with the data described above in this section, mouse antibodies 11 E12 and 15H05 both bound to canine and feline IL-31 surfaces. […] From this group of nine fully canine antibodies, only ZIL1 and ZIL9 cross-reacted with equine IL-31. Of note, antibody 15H05 was the only one of all assayed herein that bound to canine, feline, and equine IL-31 indicating some level of epitope conservation across the three species. In contrast, none of the antibodies described herein bound to human IL-31. Additional biacore surfaces were used to verify ELISA observations showing differential binding of antibodies to wildtype feline IL-31 and two proteins with mutations in the 15H05 (15H05 mutant) or 11 E12 (11E12 mutant) epitopes. […] Differing results can be attributed to differences in the two assay methodologies.

canine IL-31 [1] = test: Competition binding assessment using Biacore, canine IL-31 surface; details: sequential addition of 15H05 and 11E12, Biacore
canine IL-31, sequence (as listed by the source): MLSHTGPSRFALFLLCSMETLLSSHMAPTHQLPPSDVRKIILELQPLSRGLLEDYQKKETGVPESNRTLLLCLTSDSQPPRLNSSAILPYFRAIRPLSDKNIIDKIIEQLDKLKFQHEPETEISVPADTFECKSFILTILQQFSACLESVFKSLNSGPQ
Experimental: To further characterize the IL-31 epitopes bound by mAbs 15H05 and 11 E12, blocking experiments were performed using biacore where the surface containing the IL-31 protein was generated followed by sequential addition of antibodies. FIGS. 7A and 7B show the relative binding of each antibody to IL-31 following capture of 11E12 or 15H05. The columns labeled HBS-EP (assay buffer) indicate the maximum signal obtained from each antibody binding to the IL-31 surface alone without competition. […] The sensograms related to FIG. 7A show the disassociation kinetics of both antibodies are very slow on this newly formed biacore surface therefore no additional occupation of binding sites can occur with addition of the same antibody (data not shown).

[2] = tested on: feline IL-31 11E12 mutant; test: Indirect ELISA, binding to feline IL-31 11E12 mutant; details: compared with wildtype
feline IL-31 11E12 mutant, sequence (as listed by the source, change not shown): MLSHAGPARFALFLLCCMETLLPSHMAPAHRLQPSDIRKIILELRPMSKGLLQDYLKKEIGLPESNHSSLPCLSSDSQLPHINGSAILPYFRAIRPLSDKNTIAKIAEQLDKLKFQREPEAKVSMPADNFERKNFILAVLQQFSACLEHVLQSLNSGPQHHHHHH
From the text: To determine the impact of mAbs 11E12 and 15H05 ability to bind these mutant forms of feline IL-31, an indirect ELISA was run using the mutants directly coated on to an immunoassay plate. […] The minor attenuation of mAb 15H05s binding to the 11E12 mutant is likely due to translational effects of the mutations from movement of the two front helices effecting the 15H05 binding site. The mutations designed to affect mAb 15H05s binding (mutant 15H05) show a complete loss of mAb 1505s ability to bind this IL-31 mutant by ELISA. Unlike the 11E12 mutant, the changes in the random coil recognized by mAb 15H05 (mutant 15H05) had no impact on mAb 11E12 binding further supporting the distinction between the two epitopes (FIG. 6C).

wildtype feline IL-31 = test: Indirect ELISA, binding to wildtype feline IL-31
wildtype feline IL-31, sequence (as listed by the source): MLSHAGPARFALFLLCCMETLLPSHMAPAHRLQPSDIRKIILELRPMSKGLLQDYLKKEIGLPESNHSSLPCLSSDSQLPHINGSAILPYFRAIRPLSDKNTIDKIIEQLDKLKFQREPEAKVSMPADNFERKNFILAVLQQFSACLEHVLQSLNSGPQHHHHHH
How it was run: (§1)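 Wildtype or 15H05-epitope-mutant feline IL-31 coated directly onto plates as capture antigen (50 ng/well). Antibodies diluted in PBST, bound antibody detected with HRP-labelled secondary and TMB for 10 min at RT. Reaction stopped with 0.1 N HCl, then OD read at 450 nm.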

canine IL-31 [3] = test: Affinity of anti-IL-31 antibodies by surface plasmon resonance (Biacore), canine IL-31 surface; assay type: binding; details: IL-31 conjugated to the surface (FIG. 2)
How it was run: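 IL-31 amine-coupled (NHS/EDC) at 5 μg/mL directly onto the SPR chip, quenched with ethanolamine; candidate mAbs flowed over as analyte. KD from 1:1 model fits; values below 1×10^−11 M are under the instrument's lower quantitation limit.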

[4] = tested on: feline IL-31 15H05 mutant; test: Indirect ELISA, binding to feline IL-31 15H05 mutant; details: compared with wildtype
feline IL-31 15H05 mutant, sequence (as listed by the source, change not shown): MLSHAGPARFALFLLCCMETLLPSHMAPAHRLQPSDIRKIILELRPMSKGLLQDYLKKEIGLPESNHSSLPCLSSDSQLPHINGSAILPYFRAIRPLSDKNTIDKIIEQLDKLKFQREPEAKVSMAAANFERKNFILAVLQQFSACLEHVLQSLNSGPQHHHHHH
How it was run: as §1

equine IL-31, sequence (as listed by the source): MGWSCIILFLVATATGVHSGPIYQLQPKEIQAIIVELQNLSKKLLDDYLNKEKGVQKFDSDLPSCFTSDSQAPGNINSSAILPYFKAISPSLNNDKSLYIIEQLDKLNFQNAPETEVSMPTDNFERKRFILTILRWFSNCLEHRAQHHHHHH

B1: 15H05: mouse anti IL-31 monoclonal antibody, VH SEQ ID NO: 67, VL SEQ ID NO: 69 (antibody, listed as Mus musculus, V domains shown)
VH: QVQLQQSAAELARPGASVKMSCKTSGYTFTSYTIHWIKQRPGQGLEWIGNINPTSGYTENNQRFKDKTTLTVDRSSNTAYLQLHSLTSEDSAVYFCARWGFKYDGEWSFDVWGAGTTVTVSS
VL: DIQMNQSPSSLSASLGDTITVTCRASQGISIWLSWYQQKPGNIPKVLINKASNLHIGVPPRFSGSGSGTHFTLTITSLQPEDIATYYCLQSQTYPLTFGGGTKLEIN
binding to equine IL-31 (Biacore) (equine IL-31): bound
competition binding on canine IL-31 (canine IL-31 [1]): capable of binding to canine IL-31 in the presence of one another
binding to feline IL-31 11E12 mutant (ELISA) [2]: partially attenuated
binding to wildtype feline IL-31 (ELISA) (wildtype feline IL-31): capable of binding
affinity (KD) to canine IL-31 (canine IL-31 [3]; listed as Mu-15H05): sub-nanomolar
affinity (KD) to canine IL-31 (canine IL-31 [3]; listed as mAb 15H05): high
binding to feline IL-31 15H05 mutant (ELISA) [4]: complete loss
